According to US20210253718A1 (MODMAB THERAPEUTICS, published 2021):
Where a chain is given by its changes, count along the chain named. Blank lines part the entries; values can stand above or below the binder they belong to.

Assays:
[1] = biological target: T1, FZD9 cysteine-rich domain (CRD), MYC-tagged and GPI-anchored on CHO cells (human, UniProt O00144 35-161, GPI anchor); assay: immunofluorescence, CHO-CRD cells
T1 construct: also called FZD9 CRD; CHO-myc-FZDGPI; not shown: MYC tag and GPI anchor signal
T1 sequence: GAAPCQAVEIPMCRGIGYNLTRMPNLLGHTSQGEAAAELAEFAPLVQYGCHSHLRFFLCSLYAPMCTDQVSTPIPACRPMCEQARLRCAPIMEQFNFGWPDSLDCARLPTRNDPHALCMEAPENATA

[2] = biological target: T2, FZD10 cysteine-rich domain (CRD), MYC-tagged and GPI-anchored on CHO cells (human, UniProt Q9ULW2 30-156, GPI anchor); assay: immunofluorescence, CHO-CRD cells
T2 construct: also called FZD10 CRD; CHO-myc-FZDGPI; not shown: MYC tag and GPI anchor signal
T2 sequence: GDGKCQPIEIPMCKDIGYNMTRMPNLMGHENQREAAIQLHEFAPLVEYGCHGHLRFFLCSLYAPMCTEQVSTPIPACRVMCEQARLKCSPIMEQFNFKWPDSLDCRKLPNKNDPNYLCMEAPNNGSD

[3] = biological target: T3, FZD3 cysteine-rich domain (CRD), MYC-tagged and GPI-anchored on CHO cells (human, UniProt Q9NPG1 24-150, GPI anchor); assay: immunofluorescence, CHO-CRD cells
T3 construct: domain: cysteine-rich domain (CRD); also called FZD3 CRD; CHO-myc-FZDGPI; not shown: MYC tag and GPI anchor signal
T3 sequence (looked up): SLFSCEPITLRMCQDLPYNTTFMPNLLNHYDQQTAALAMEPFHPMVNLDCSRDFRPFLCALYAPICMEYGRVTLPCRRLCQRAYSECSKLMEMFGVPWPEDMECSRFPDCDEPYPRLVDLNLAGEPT

[4] = biological target: T4, FZD8 cysteine-rich domain (CRD), MYC-tagged and GPI-anchored on CHO cells (human, UniProt Q498S8 31-155 (rat entry), GPI anchor); assay: immunofluorescence, CHO-CRD cells
T4 construct: also called FZD8 CRD; CHO-myc-FZDGPI; not shown: MYC tag and GPI anchor signal
T4 sequence: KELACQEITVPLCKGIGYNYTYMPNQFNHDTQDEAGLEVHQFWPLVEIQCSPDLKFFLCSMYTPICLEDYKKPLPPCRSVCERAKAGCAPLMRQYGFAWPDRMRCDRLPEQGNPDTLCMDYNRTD

[5] = biological target: T5, FZD6 cysteine-rich domain (CRD), MYC-tagged and GPI-anchored on CHO cells (human, UniProt O60353 20-146, GPI anchor); assay: immunofluorescence, CHO-CRD cells
T5 construct: also called FZD6 CRD; CHO-myc-FZDGPI; not shown: MYC tag and GPI anchor signal
T5 sequence: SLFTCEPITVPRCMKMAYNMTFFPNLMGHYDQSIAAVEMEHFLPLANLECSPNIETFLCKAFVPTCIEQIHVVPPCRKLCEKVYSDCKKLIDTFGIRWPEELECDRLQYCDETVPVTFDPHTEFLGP

[6] = biological target: T6, FZD4 cysteine-rich domain (CRD), MYC-tagged and GPI-anchored on CHO cells (human, UniProt Q9ULV1 42-167, GPI anchor); assay: immunofluorescence, CHO-CRD cells
T6 construct: also called FZD4 CRD; CHO-myc-FZDGPI; not shown: MYC tag and GPI anchor signal
T6 sequence: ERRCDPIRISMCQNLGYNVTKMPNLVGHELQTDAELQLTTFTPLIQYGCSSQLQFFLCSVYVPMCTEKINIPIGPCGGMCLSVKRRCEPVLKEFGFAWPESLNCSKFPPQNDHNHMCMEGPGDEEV

[7] = biological target: T1, FZD9 cysteine-rich domain (CRD), …; assay: flow cytometry, CHO-CRD cells;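 also: flow cytometry of Fab binding to CHO cells overexpressing a Frizzled CRD, with binding defined as median fluorescence over twice that of CHO cells lacking any Frizzled CRD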
Description: (§1) Binding was measured via flow cytometry analysis of CHO cells overexpressing CRD of FZD1, FZD2, FZD3, FZD4, FZD5, FZD6, FZD7, FZD8, FZD9 or FZD10. Median fluorescence values are shown.

[8] = biological target: T2, FZD10 cysteine-rich domain (CRD), …; assay: flow cytometry, CHO-CRD cells;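 also: flow cytometry of Fab binding to CHO cells overexpressing a Frizzled CRD, with binding defined as median fluorescence over twice that of CHO cells lacking any Frizzled CRD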
Description: as §1

[9] = biological target: T7, FZD5 cysteine-rich domain (CRD), MYC-tagged and GPI-anchored on CHO cells (human, UniProt Q13467 29-156, GPI anchor); assay: flow cytometry, CHO-CRD cells;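 also: flow cytometry of Fab binding to CHO cells overexpressing a Frizzled CRD, with binding defined as median fluorescence over twice that of CHO cells lacking any Frizzled CRD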
T7 construct: also called FZD5 CRD; CHO-myc-FZDGPI; not shown: MYC tag and GPI anchor signal
T7 sequence: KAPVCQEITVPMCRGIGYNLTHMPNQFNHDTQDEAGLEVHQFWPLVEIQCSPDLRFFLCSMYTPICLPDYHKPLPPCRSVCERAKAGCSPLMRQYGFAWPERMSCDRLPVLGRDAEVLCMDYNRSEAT

[10] = biological target: T3, FZD3 cysteine-rich domain (CRD), …; assay: flow cytometry, CHO-CRD cells;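 also: flow cytometry of Fab binding to CHO cells overexpressing a Frizzled CRD, with binding defined as median fluorescence over twice that of CHO cells lacking any Frizzled CRD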
Description: as §1

[11] = biological target: T4, FZD8 cysteine-rich domain (CRD), …; assay: flow cytometry, CHO-CRD cells
Description: as §1

[12] = biological target: T5, FZD6 cysteine-rich domain (CRD), …; assay: flow cytometry, CHO-CRD cells
Description: as §1

[13] = biological target: T6, FZD4 cysteine-rich domain (CRD), …; assay: flow cytometry, CHO-CRD cells
Description: as §1

[14] = biological target: T8, FZD1 cysteine-rich domain (CRD), MYC-tagged and GPI-anchored on CHO cells (human); assay: flow cytometry, CHO-CRD cells
Description: as §1

[15] = biological target: T9, FZD2 cysteine-rich domain (CRD), MYC-tagged and GPI-anchored on CHO cells (human, UniProt Q14332 35-161); assay: flow cytometry, CHO-CRD cells
Description: as §1

[16] = biological target: T10, FZD7 cysteine-rich domain (CRD), MYC-tagged and GPI-anchored on CHO cells (human, UniProt O75084 45-169); assay: flow cytometry, CHO-CRD cells
Description: as §1

[17] = biological target: T1, FZD9 cysteine-rich domain (CRD), …; assay: flow cytometry on CHO-GPI cells over-expressing the Frizzled CRD;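 also: binding of recombinant anti-Frizzled Fabs to the cells, read as fold mean fluorescence intensity above secondary-antibody-only background and normalized to control CHO-GPI cells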
Excerpt: (§2) Specificity profiling of the Frizzled profiler Fabs by flow cytometry in CHO-GPI cells over-expressing CRDs of FZD1, FZD2, FZD3, FZD4, FZD5, FZD6, FZD7, FZD8, FZD9 or FZD10. Numerical values indicate a fold-increase in mean fluorescence intensity of the reacting Fab over the background (secondary antibody alone) normalized to the control (C, CHO-GPI).
(§3) To characterize the binding specificity of these Fabs on cells, a panel of 10 CHO cell lines was generated, each expressing the CRD domain of a different myc-tagged Frizzled family member anchored at the plasma membrane through a GPI anchor (CHO-myc-FZDGPI).

[18] = biological target: T2, FZD10 cysteine-rich domain (CRD), …; assay: as above
Excerpt: as §2, §3

[19] = biological target: T8, FZD1 cysteine-rich domain (CRD), …; assay: as above
Excerpt: as §2, §3

[20] = biological target: T7, FZD5 cysteine-rich domain (CRD), …; assay: as above
Excerpt: as §2, §3

[21] = biological target: T3, FZD3 cysteine-rich domain (CRD), …; assay: as above
Excerpt: as §2, §3

[22] = biological target: T4, FZD8 cysteine-rich domain (CRD), …; assay: as above
Excerpt: as §2, §3

[23] = biological target: T9, FZD2 cysteine-rich domain (CRD), …; assay: as above
Excerpt: as §2, §3

[24] = biological target: T10, FZD7 cysteine-rich domain (CRD), …; assay: as above
Excerpt: as §2, §3

[25] = biological target: T5, FZD6 cysteine-rich domain (CRD), …; assay: as above
Excerpt: as §2, §3

[26] = biological target: T6, FZD4 cysteine-rich domain (CRD), …; assay: as above
Excerpt: as §2, §3

binding result [1]: no binding | binding result [2]: no binding | binding result [3]: no binding | binding result [4]: no binding | binding result [5]: no binding | binding result [6]: no binding | median fluorescence [7]: 3.13 | median fluorescence [8]: 3.08 | median fluorescence [9]: 25.5 | median fluorescence [10]: 3.22 | median fluorescence [11]: 5.52 | median fluorescence [12]: 2.89 | median fluorescence [13]: 4.57
B1: Fab-2908 (Fab, V domains shown)
VH: EVQLVESGGGLVQPGGSLRLSCAASGFNFSSSSIHWVRQAPGKGLEWVAYIYPSYSYTYYADSVKGRFTISADTSKNTAYLQMNSLRAEDTAVYYCARAYYGHFHAMDYWGQGTLVTVSS
VL: DIQMTQSPSSLSASVGDRVTITCRASQSVSSAVAWYQQKPGKAPKLLIYSASSLYSGVPSRFSGSRSGTDFTLTISSLQPEDFATYYCQQSSYSLITFGQGTKVEIK
notes: Fab; also called Fv-2908

binding result [1]: no binding | binding result [2]: no binding | binding result [3]: no binding | binding result [4]: no binding | binding result [5]: no binding | binding result [6]: no binding | median fluorescence [7]: 4.1 | median fluorescence [8]: 3.96 | median fluorescence [14]: 38.2 | median fluorescence [9]: 20.5 | median fluorescence [10]: 4.96 | median fluorescence [11]: 7.43 | median fluorescence [15]: 22.7 | median fluorescence [16]: 43.3 | median fluorescence [12]: 3.68 | median fluorescence [13]: 6.21
B2: Fab-2911 (Fab, V domains shown)
VH: EVQLVESGGGLVQPGGSLRLSCAASGFNIYYSSMHWVRQAPGKGLEWVAYIYPYSGYTSYADSVKGRFTISADTSKNTAYLQMNSLRAEDTAVYYCARYFWWYGFDYWGQGTLVTVSS
VL: B1 VL with S91G, S92P, Y93W, S94Y, L95P, I96F
notes: Fab; also called Fv-2911

median fluorescence [7]: 2.79 | median fluorescence [8]: 2.48 | median fluorescence [14]: 3.52 | median fluorescence [9]: 43.7 | median fluorescence [10]: 3.96 | median fluorescence [11]: 20.5 | median fluorescence [15]: 4.26 | median fluorescence [16]: 2.41 | median fluorescence [12]: 2.64 | median fluorescence [13]: 3.79 | binding result [17]: no binding (tested: 200 nM) | binding result [18]: no binding (tested: 200 nM) | binding result [19]: no binding (tested: 200 nM) | fold-increase in mean fluorescence intensity over background (secondary antibody alone), normalized to control CHO-GPI [20]: 19.2 fold | binding result [21]: no binding (tested: 200 nM) | fold-increase in mean fluorescence intensity over background (secondary antibody alone), normalized to control CHO-GPI [22]: 14.4 fold | binding result [23]: no binding (tested: 200 nM) | binding result [24]: no binding (tested: 200 nM) | binding result [25]: no binding (tested: 200 nM) | binding result [26]: no binding (tested: 200 nM)
B3: Fab-2919 (Fab, V domains shown)
VH: EVQLVESGGGLVQPGGSLRLSCAASGFNISYSYIHWVRQAPGKGLEWVASIYSSSGSTSYADSVKGRFTISADTSKNTAYLQMNSLRAEDTAVYYCARGAIDYWGQGTLVTVSS
VL: DIQMTQSPSSLSASVGDRVTITCRASQSVSSAVAWYQQKPGKAPKLLIYSASSLYSGVPSRFSGSRSGTDFTLTISSLQPEDFATYYCQQWYSSGHVLITFGQGTKVEIK
notes: Fab

median fluorescence [7]: 2.94 | median fluorescence [8]: 2.48 | median fluorescence [14]: 4.53 | median fluorescence [9]: 29.4 | median fluorescence [10]: 3.59 | median fluorescence [11]: 6.98 | median fluorescence [15]: 4.37 | median fluorescence [16]: 4.37 | median fluorescence [12]: 2.67 | median fluorescence [13]: 4.1 | binding result [17]: no binding (tested: 200 nM) | binding result [18]: no binding (tested: 200 nM) | binding result [19]: no binding (tested: 200 nM) | fold-increase in mean fluorescence intensity over background (secondary antibody alone), normalized to control CHO-GPI [20]: 14 fold | binding result [21]: no binding (tested: 200 nM) | fold-increase in mean fluorescence intensity over background (secondary antibody alone), normalized to control CHO-GPI [22]: 6.8 fold | binding result [23]: no binding (tested: 200 nM) | binding result [24]: no binding (tested: 200 nM) | binding result [25]: no binding (tested: 200 nM) | binding result [26]: no binding (tested: 200 nM)
B4: Fab-2921 (Fab, V domains shown)
VH: B3 VH with S32Y, S53P, I101M
VL: DIQMTQSPSSLSASVGDRVTITCRASQSVSSAVAWYQQKPGKAPKLLIYSASSLYSGVPSRFSGSRSGTDFTLTISSLQPEDFATYYCQQWYAGSLITFGQGTKVEIK
notes: Fab
